B1: Phorbol-12-myristate-13-acetate-induced protein 1 (Homo sapiens), Q13794 (parent)
chain: MPGKKARKNAQPSPARAPAELEVECATQLRRFGDKLNFRQKLLNLISKLFCSGT
B2: Bcl-2-like protein 11 (Mus musculus), O54918 (parent)
chain: MAKQPSDVSSECDREGGQLQPAERPPQLRPGAPTSLQTEPQGNPDGEGDRCPHGSPQGPLAPPASPGPFATRSPLFIFVRRSSLLSRSSSGYFSFDTDRSPAPMSCDKSTQTPSPPCQAFNHYLSAMASIRQSQEEPEDLRPEIRIAQELRRIGDEFNETYTRRVFANDYREAEDHPQMVILQLLRFIFRLVWRRH
B3: Phorbol-12-myristate-13-acetate-induced protein 1 (Homo sapiens), Q13794 (parent)
chain: B1 chain
partner: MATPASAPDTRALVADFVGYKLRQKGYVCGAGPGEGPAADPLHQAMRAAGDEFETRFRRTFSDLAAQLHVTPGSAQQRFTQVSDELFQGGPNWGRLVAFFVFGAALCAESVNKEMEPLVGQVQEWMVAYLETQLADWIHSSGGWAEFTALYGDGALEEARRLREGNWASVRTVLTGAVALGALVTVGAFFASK

Variants of: B1
Settings: with BCL2L1, Q07817-1
Sequence of BCL2L1, Q07817-1 (Q07817 whole entry): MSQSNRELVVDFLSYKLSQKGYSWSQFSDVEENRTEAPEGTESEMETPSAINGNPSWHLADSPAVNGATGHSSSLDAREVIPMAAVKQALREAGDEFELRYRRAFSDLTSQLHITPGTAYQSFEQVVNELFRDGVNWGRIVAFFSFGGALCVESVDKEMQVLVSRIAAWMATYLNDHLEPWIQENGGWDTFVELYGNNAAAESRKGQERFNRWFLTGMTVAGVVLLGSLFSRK

Variant	effect of a mutation on the interaction
F32I	increasing interaction
K35E	increasing interaction

Variants of: B2
Settings: with mcl1_mouse Mcl1, P97287
Sequence of mcl1_mouse Mcl1, P97287 (P97287 whole entry): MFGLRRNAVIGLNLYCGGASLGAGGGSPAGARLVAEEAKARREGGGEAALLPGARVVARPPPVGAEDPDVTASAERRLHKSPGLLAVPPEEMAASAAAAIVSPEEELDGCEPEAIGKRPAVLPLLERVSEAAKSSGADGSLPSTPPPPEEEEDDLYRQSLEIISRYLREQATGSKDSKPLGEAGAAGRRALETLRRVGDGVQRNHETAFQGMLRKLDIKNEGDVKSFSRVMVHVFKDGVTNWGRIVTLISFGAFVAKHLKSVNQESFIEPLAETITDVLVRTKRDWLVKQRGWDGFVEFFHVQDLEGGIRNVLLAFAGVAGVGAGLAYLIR

Variant	effect of a mutation on the interaction
I146E	decreasing interaction
F157E	decreasing interaction
I153E	decreasing interaction
L150E	decreasing interaction

Variants of: B3
Settings: with BCL2L2, Q92843

Variant	effect of a mutation on the interaction
K35E	increasing interaction
F32I	increasing interaction

— IntAct's records for PubMed 15694340
